The nature of data set [1]: Pharmacokinetics in TPTX rats. The class given is in vivo, rat.
The subject of data set [2] is TPTX rats. Nature of the data set: Single administration study in TPTX rats. The class given is in vivo, rat. As to conditions: TPTX studies, 0.9 nmol/kg. The protocol:
TPTX was carried out in 6-week-old female Crl:CD(SD) rats (Charles River Laboratories). Rats with serum Ca levels of <8.0 mg dl^−1 at 5 days after surgery were used for the experiment. The rats were divided into six groups, each with a similar mean value of serum Ca levels and body weight. TPTX rats were treated once orally (vehicle or PCO371 at 1.3, 6.5 or 33 mg kg^−1) or subcutaneously (vehicle or hPTH(1–84) (Chugai Pharmaceutical) at 9 nmol kg^−1). Six TPTX rats were assigned to each dose group. The sample size was determined based on previous experiments and a published study with hPTHs and LA-PTH in our laboratories[24] (n=5–6). Vehicle for PCO371 was the same as in the OVX rat study, and phosphate-citrate buffer (pH 6.0) was used as vehicle for hPTH(1–84). Under isoflurane anaesthesia, jugular vein blood was collected immediately before and at 1, 2, 6, 10 and 24 h after administrations to measure serum Ca (o-CPC method, Wako Pure Chemical Industries) and Pi levels (xanthine oxidase method, Wako Pure Chemical Industries).
In another experiment, the effects of a single treatment with PCO371 or hPTH(1–34) on serum Ca and Pi in TPTX rats (6-week-old) were evaluated at the dose of 3, 9.5 or 30 mg kg^−1 (PCO371, p.o.) or 9 nmol kg^−1 (hPTH(1–34), s.c.) according to the same method as that described above.

Data set [3] has as its system TPTX rats. Briefly: Repeated administration study in TPTX rats, study 1. The class given is in vivo, rat. The method, then: TPTX was carried out in 6-week-old female Crl:CD (SD) rats (Charles River Laboratories). Rats with serum Ca levels of <8.0 mg dl^−1 at 5 days after surgery were used in the following experiments. The rats were divided into four groups both in study 1 and 2, each with a similar mean value of serum Ca levels and body weight. Sample sizes were determined as described in the above single administration study. To evaluate the calcemic effects of PCO371 and hPTHs, we defined a target therapeutic range for serum Ca of 7.6–11.2 mg dl^−1, which corresponds to the low normal to normal range of serum Ca levels.
TPTX rats were treated twice daily (at around 09:00 and 19:00 hours) orally (vehicle or PCO371 at 1, 3 or 9 mg kg^−1) or subcutaneously [hPTH(1–34) or vehicle at 9 nmol kg^−1] for 4 weeks. Four rats were assigned to sham control, and treated with vehicle for PCO371. Vehicles for PCO371 and hPTH(1–34) were the same as in the OVX rat study. Under isoflurane anaesthesia, jugular vein blood was collected immediately before and at 6 and 10 h (for PCO371) or at 1 and 10 h (for hPTH) after administrations to measure the serum Ca levels on days 1 (the first dosing day), 7, 14, 22 and 29. Urine was collected for 24 h by using metabolic cages on days 29–30, and Ca excretion was calculated from urine volume and Ca level. Under isoflurane anaesthesia, jugular vein blood was collected 10 h after administrations to measure serum 1,25(OH)2D3 levels on Day 29 by using a 1,25(OH)2D3 RIA kit (Fujirebio). Four or five TPTX rats were assigned to each dose group. Serum and urine Ca levels were measured in the same way as in the single-dosing study. In another experiment, TPTX rats were treated subcutaneously once daily with hPTH(1–84) at 9 nmol kg^−1, for 4 weeks. Serum Ca was measured immediately before and at 2, 6 and 10 h after administration on day 1 (the first dosing day), 7, 14, 21 and 28 using the same method as described above. Urine was collected for 24 h by using metabolic cages on days 28 and 29, and Ca excretion was calculated from urine volume and Ca level.

In another data set the test system is patients. Details: method as in PMID 23649554. As to conditions: once-daily dosing; cited from earlier work.
For data set [4] the following is noted: human; ref Calcifi Tissue Int 2010 87:485, J Bone Miner Res 2013 28:2232, J Pharmcol Exp Ther 2009 330:169; cited from earlier work.
Details of data set [5]: method as in earlier work. As to conditions: rat; ref Calcifi Tissue Int 2010 87:485, J Bone Miner Res 2013 28:2232, J Pharmcol Exp Ther 2009 330:169; cited from earlier work.

Where two headings read alike, the source gives them in different places.

In the case of “hPTH(1–84): the full-length, native PTH molecule called human PTH(1–84) [reference compound]”, in data set [1] (s.c. 30 nmol kg-1), the area under the curve (AUC) (as a rule, concentration integrated over time) stood at 1.80 ± 0.78 ng·h/mL; the Cmax (in general, the peak of the concentration-time curve) was determined as 3.42 ± 1.10 ng/mL; the T1/2 stood at 12 ± 6 min; the Tmax – broadly, the time from dosing to the highest level – was 12 ± 12 min. Further, in data set [1] (s.c. 100 nmol kg-1), the AUC was 8.55 ± 4.63 ng·h/mL, the Cmax was 8.67 ± 1.97 ng/mL, the T1/2 was found to be 102 ± 132 min and the Tmax was found to be 6 ± 6 min. Moreover, in data set [1] (s.c. 300 nmol kg-1), the AUC turned out to be 21.0 ± 5.58 ng·h/mL, the Cmax is 39.7 ± 10.3 ng/mL, the T1/2 came to 66 ± 54 min and the time to peak (Tmax) was determined as 6 ± 6 min. For the same substance, the “serum Ca levels” value in the data set on TPTX rats [2] is listed as “failed to induce any changes”. The “urinary Ca excretion” value with TPTX rats [3] (after 4-week treatment, s.c. once daily 9 nmol kg^−1) is recorded as “No increase”. For the same substance, the “serum Ca” value with TPTX rats [3] (subcutaneous 9 nmol kg^−1 for 4 weeks, target therapeutic range 7.6–11.2 mg dl^−1) was “transiently increased serum Ca to within the target therapeutic range”. For the same substance, in the data set on patients, the “duration of observed effects” value is listed as “up to 24 h”, the “patients with hypercalcemia at peak times” value is reported as 71% and the “time of peak Ca levels after administration” value is on record as “around 7 h”. In data set [4], the “Tmax at the first peak” value is 15 min and the time to peak (Tmax) at the second peak is 120 min. Further, the Tmax in data set [5] is 5 to 15 min.

Source of the values: publication PMC5120204, “Identification of an orally active small-molecule PTHR1 agonist for the treatment of hypoparathyroidism” (Nature Communications, 2016).
